PMC3797752 (2013)

Biological target: wild-type SF162 gp120 (HIV-1 SF162)
Assay: SPR

B1: mAb VRC01 (antibody, V domains shown)
VH: QVQLVQSGGQMKKPGESMRISCRASGYEFIDCTLNWIRLAPGKRPEWMGWLKPRGGAVNYARPLQGRVTMTRDVYSDTAFLELRSLTVDDTAVYFCTRGKNCDYNWDFEHWGRGTPVIVSS
VL: EIVLTQSPGTLSLSPGETAIISCRTSQYGSLAWYQQRPGQAPRLVIYSGSTRAAGIPDRFSGSRWGPDYNLTISNLESGDFGVYYCQQYEFFGQGTKVQVD
- Kd: 2.08 nM
